# Experimental data from paper PMC10572015.
# Key:
# [1] = biological target: endogenous PTB-containing squid proteins
# [2] = biological target: phosphotyrosine-binding domain (PTB)-containing axonal proteins
Substance,"mean anterograde FAT rate, vesicle motility assay in isolated squid axoplasm; 100 nM GST–AICD co-perfused with an excess of Fe65 PTB2-6xHis as competitor (GST–AICD alone 1.20; Buffer X/2 1.64) [1]","mean retrograde FAT rate, vesicle motility assay in isolated squid axoplasm; 100 nM GST–AICD co-perfused with an excess of Fe65 PTB2-6xHis as competitor (GST–AICD alone 1.02; Buffer X/2 1.23) [1]","mean anterograde FAT rate, vesicle motility assay in isolated squid axoplasm perfused with 100 nM GST–AICD (Buffer X/2 1.64) [2]","mean retrograde FAT rate, vesicle motility assay in isolated squid axoplasm perfused with 100 nM GST–AICD (Buffer X/2 1.23) [2]","mean anterograde FAT rate, vesicle motility assay in isolated squid axoplasm perfused with 100 nM GST–AICDΔNPTY (GST–AICD 1.20; Buffer X/2 1.64) [2]","mean retrograde FAT rate, vesicle motility assay in isolated squid axoplasm perfused with 100 nM GST–AICDΔNPTY (GST–AICD 1.02; Buffer X/2 1.23) [2]"
GST–AICD (APP intracellular domain fused to glutathione-S-transferase) (domain or fragment),1.4 µm/s,1.19 µm/s,1.2 µm/s,1.02 µm/s,–,–
GST–AICDΔNPTY (domain or fragment),–,–,–,–,1.5 µm/s,1.14 µm/s
